Measurements: paper doi:10.1101/2025.09.11.675134, “Biodistribution-Driven Discovery Identifies a Glycosidase-Cleavable Linker to Reprogram Radiotheranostics” (bioRxiv, 2025)
Like-named read-outs stand apart in the source and are kept apart here. Positions of bridges follow the written chain, without caps; N, C: chain ends. Non-standard residues stand in square brackets, D forms with d. Residues, ends and D or L forms follow the SMILES beside them. *: point of attachment. DOTA = O=C(O)CN1CCN(CC(=O)O)CCN(CC(=O)*)CCN(CC(=O)O)CC1

Assay: Ex vivo biodistribution screen of 111In-labeled DOTA-TATE derivatives in normal mice
Parameters: species or system athymic nude mice
Details: 2 h post-injection; for tissue uptake at 2 h: athymic nude, mouse, iv, 1 ug per mouse, total radioactivity; for Relative kidney retention, % rel. to DOTA-TATE: normal mice, 111In-DOTA-TATE set as 100%
Method: The panel of 10 compounds were then tested in an initial biodistribution screen of 9 organs assessed in non-tumor-bearing mice at specific timepoints following administration of the radioconjugates. Each agent was initially labeled with ^111In, a long-lived gamma-emitting radioisotope suitable for biodistribution studies, with high radiochemical yields and purity (Fig. S12). The compounds were then dosed (1.55 ± 0.12 MBq; 1 μg per mouse) in healthy athymic nude mice via intravenous (i.v.) injection in phosphate-buffered saline (PBS; vehicle). After 2 hours, the mice were sacrificed and ex vivo biodistribution analysis was performed (Fig. 2). […] This was an expected finding because this variant was designed to bind serum albumin.
Radiolabeling and In Vivo Evaluation of DOTA-TATE Variants:
Biodistribution, PET Quantification, and Dosimetry
Radiolabeling: To perform the initial biodistribution screen, radiolabeling of 10 compounds, including DOTA-TATE, was carried out using 111In (Cardinal Health, Arbutus, MD, USA), an affordable and readily available gamma -emitting radioisotope with a moderate half -life (2.83 days), which affords efficient DOTA radiolabeling and facilitates handling. 111InCl3 (28 – 36 MBq) was diluted with 0.4 M NH 4OAc buffer (pH 5.2) and combined with DOTA -TATE variants (20 μg). The solution was mixed well and then incubated at 90 °C for 30 min.
Radiolabeling efficiency and radiochemical purity were determined by radio -TLC and radio - HPLC. Radiochemical yield was >95% and the material was used without further purification.
The specific activity was 1.55 ± 0.12 TBq/g (41.9 ± 3.2 Ci/g). […]
Radio-instant thin-layer chromatography (radio-iTLC) was performed using silicic acid-impregnated glass microfiber paper strips (iTLC-SA, Varian, Lake Forest, CA, USA) as the stationary phase, and 50 mM EDTA in 100 mM NH4OAc (pH 5.5) as the mobile phase, analyzed with a radio-TLC scanner (AR-2000, Eckert-Ziegler, Wilmington, MA, USA). For Ac-225, equilibration was allowed for at least 12 hours before scanning the TLC strips to confirm initial scans. Radio-HPLC analysis (Agilent 1260 Infinity II, Agilent Technologies Inc., Santa Clara, CA, USA) was conducted on a TSK- Octadecyl-4PW column (5 µm, 4.6 mm ID × 15 cm, Tosoh
Co. Tokyo, Japan) with gradient elution using 0.1% trifluoroacetic acid in water as mobile phase A and 0.1% trifluoroacetic acid in acetonitrile as Mobile phase B. The elution sequence was 0-5 […]
PET imaging and biodistribution: For initial biodistribution screen studies, normal mice were administered 1.4 – 1.8 MBq (1 μg) of 111In-DOTA-TATE variants via tail vein injection and biodistribution studies were conducted at 2 hours post -injection (n = 2 – 4 per cohort).
For studies involving three variants (DOTA -TATE, DOTA-MVK(ε)-TATE, and DOTA-β-Gal-TATE), AR42J cells (5 × 10^6 cells per mouse) were subcutaneously inoculated into the right shoulder of the mice. Tumors were allowed to grow for 3 weeks, reaching a volume of 100 –200 mm³ before being used in subsequent experiments. For biodistribution or PET imaging studies, mice bearing subcutaneous AR42J tumors were administered 1.4 – 1.8 MBq (1 μg) of 111In-labeled DOTA-TATE variants or 2.7 – 4.9 MBq (1 μg) of 86Y-labeled DOTA-TATE variants via tail vein injection. Biodistribution studies with 111In-labeled DOTA -TATE variants were performed 1 hour post -injection (n = 3 per cohort), while studies with 86Y-labeled DOTA-TATE variants were conducted at 1, 4, and 24 hours post -injection (n = 3 per cohort). Mice were euthanized by CO2 asphyxiation, and 10 tissues, including tumors, were collected. All samples were weighed and counted on a gamma counter (2480 Wizard 3, Perkin Elmer Inc., Waltham, MA, USA). Results are presented as percentage of injected activity per gram (%IA/g) and mean values ± standard deviations.
PET imaging to assess the uptake of three 86Y-labeled DOTA-TATE variants (2.7 – 4.9 MBq, 1 […]

[1] = blood, normal athymic nude mice, i.v. 1 μg (1.4–1.8 MBq), ex vivo gamma counting, mean, n = 2–4, read-out: Blood uptake
[2] = femur, normal athymic nude mice, i.v. 1 μg, ex vivo, mean, n = 2–4, read-out: Femur uptake
[3] = heart, normal athymic nude mice, i.v. 1 μg, ex vivo, mean, n = 2–4, read-out: Heart uptake
[4] = intestine, normal athymic nude mice, i.v. 1 μg, ex vivo, mean, n = 2–4, read-out: Intestine uptake
[5] = kidney, normal athymic nude mice, i.v. 1 μg, ex vivo, mean (± SD), n = 2–4, read-out: Kidney uptake
[6] = liver, normal athymic nude mice, i.v. 1 μg, ex vivo, mean, n = 2–4, read-out: Liver uptake
[7] = lung, normal athymic nude mice, i.v. 1 μg, ex vivo, mean, n = 2–4, read-out: Lung uptake
[8] = muscle, normal athymic nude mice, i.v. 1 μg, ex vivo, mean, n = 2–4, read-out: Muscle uptake
[9] = spleen, normal athymic nude mice, i.v. 1 μg, ex vivo, mean, n = 2–4, read-out: Spleen uptake

| SMILES | tissue uptake at 2 h [1] [%ID/g] | tissue uptake at 2 h [2] [%ID/g] | tissue uptake at 2 h [3] [%ID/g] | tissue uptake at 2 h [4] [%ID/g] | tissue uptake at 2 h [5] [%ID/g] | tissue uptake at 2 h [6] [%ID/g] | tissue uptake at 2 h [7] [%ID/g] | tissue uptake at 2 h [8] [%ID/g] | tissue uptake at 2 h [9] [%ID/g] | Relative kidney retention, % rel. to DOTA-TATE [%] | tissue uptake at 2 h (in vivo, normal athymic nude mice, i.v. 1 μg (1.4–1.8 MBq), ex vivo gamma counting, mean, n = 2–4, read-out: Blood uptake) [%ID/g] | tissue uptake at 2 h (in vivo, normal athymic nude mice, i.v. 1 μg, ex vivo, mean (± SD), n = 2–4, read-out: Kidney uptake) [%ID/g] | tissue uptake at 2 h (in vivo, normal athymic nude mice, i.v. 1 μg, ex vivo, mean, n = 2–4, read-out: Femur uptake) [%ID/g] | tissue uptake at 2 h (in vivo, normal athymic nude mice, i.v. 1 μg, ex vivo, mean, n = 2–4, read-out: Heart uptake) [%ID/g] | tissue uptake at 2 h (in vivo, normal athymic nude mice, i.v. 1 μg, ex vivo, mean, n = 2–4, read-out: Intestine uptake) [%ID/g] | tissue uptake at 2 h (in vivo, normal athymic nude mice, i.v. 1 μg, ex vivo, mean, n = 2–4, read-out: Liver uptake) [%ID/g] | tissue uptake at 2 h (in vivo, normal athymic nude mice, i.v. 1 μg, ex vivo, mean, n = 2–4, read-out: Lung uptake) [%ID/g] | tissue uptake at 2 h (in vivo, normal athymic nude mice, i.v. 1 μg, ex vivo, mean, n = 2–4, read-out: Muscle uptake) [%ID/g] | tissue uptake at 2 h (in vivo, normal athymic nude mice, i.v. 1 μg, ex vivo, mean, n = 2–4, read-out: Spleen uptake) [%ID/g] | Kidney uptake (normal athymic nude mice, i.v. 1 μg, ex vivo, mean (± SD), n = 2–4) [%IA/g] |
| --- | --- | --- | --- | --- | --- | --- | --- | --- | --- | --- | --- | --- | --- | --- | --- | --- | --- | --- | --- | --- |
| C[C@@H](O)[C@H](NC(=O)[C@@H]1CSSC[C@H](NC(=O)[C@@H](Cc2ccccc2)NC(=O)CCCC(=O)Nc2cc(COC(=O)N(C)CCNC(=O)CN3CCN(CC(=O)O)CCN(CC(=O)O)CCN(CC(=O)O)CC3)ccc2O[C@@H]2O[C@H](C(=O)O)[C@@H](O)[C@H](O)[C@H]2O)C(=O)N[C@@H](Cc2ccc(O)cc2)C(=O)N[C@H](Cc2c[nH]c3ccccc23)C(=O)N[C@@H](CCCCN)C(=O)N[C@@H]([C@@H](C)O)C(=O)N1)C(=O)O [^111In-DOTA-GlcA-TATE, metal not drawn] | 0.08 | 0.1 | 0.08 | 0.44 | 8.88 | 0.13 | 0.19 | 0.03 | 0.08 | 147 |  |  |  |  |  |  |  |  |  |  |
| C[C@@H](O)[C@H](NC(=O)[C@@H]1CSSC[C@H](NC(=O)[C@@H](Cc2ccccc2)NC(=O)CCCC(=O)Nc2cc(COC(=O)N(C)CCNC(=O)CN3CCN(CC(=O)O)CCN(CC(=O)O)CCN(CC(=O)O)CC3)ccc2O[C@@H]2O[C@H](CO)[C@@H](O)[C@H](O)[C@H]2O)C(=O)N[C@@H](Cc2ccc(O)cc2)C(=O)N[C@H](Cc2c[nH]c3ccccc23)C(=O)N[C@@H](CCCCN)C(=O)N[C@@H]([C@@H](C)O)C(=O)N1)C(=O)O [^111In-DOTA-β-Glu-TATE, metal not drawn] |  |  |  |  |  |  |  |  |  | 105 | 0.09 | 6.34 | 0.21 | 0.07 | 1.07 | 0.19 | 0.51 | 0.03 | 0.16 |  |
| CSCC[C@H](NC(=O)CN1CCN(CC(=O)O)CCN(CC(=O)O)CCN(CC(=O)O)CC1)C(=O)N[C@H](C(=O)N[C@@H](CCCCN)C(=O)N[C@H](Cc1ccccc1)C(=O)N[C@H]1CSSC[C@@H](C(=O)N[C@H](C(=O)O)[C@@H](C)O)NC(=O)[C@H]([C@@H](C)O)NC(=O)[C@H](CCCCN)NC(=O)[C@@H](Cc2c[nH]c3ccccc23)NC(=O)[C@H](Cc2ccc(O)cc2)NC1=O)C(C)C [^111In-DOTA-MVK-TATE, metal not drawn] ({DOTA}-MVK[dF]CY[dW]KTCT-OH; disulfide 5-10) | 0.09 | 0.25 | 0.07 | 0.78 |  | 0.25 | 0.51 | 0.02 | 0.18 | 1251 |  |  |  |  |  |  |  |  |  | 75.65 |
| CSCC[C@H](NC(=O)CN1CCN(CC(=O)O)CCN(CC(=O)O)CCN(CC(=O)O)CC1)C(=O)N[C@H](C(=O)N[C@@H](CCCCN)C(=O)N[C@H](Cc1ccccc1)C(=O)N[C@H]1CSSC[C@@H](C(=O)N[C@H](C(=O)O)[C@@H](C)O)NC(=O)[C@H]([C@@H](C)O)NC(=O)[C@H](CCCCN)NC(=O)[C@@H](Cc2c[nH]c3ccccc23)NC(=O)[C@H](Cc2ccc(O)cc2)NC1=O)C(C)C [DOTA-MVK-TATE] ({DOTA}-MVK[dF]CY[dW]KTCT-OH; disulfide 5-10) |  |  |  |  | 76 |  |  |  |  |  |  |  |  |  |  |  |  |  |  |  |
